From patent JP2019147786A (dated 2019) come the findings set out here.

Broadly, the Kd is the concentration at which binding is half-saturated. A higher Kd goes with lower affinity. By koff is commonly meant the rate constant with which the complex falls apart. As a reminder, the kon is a measure of how fast the partners come together.

The target in experiment [1] is T1, 可溶性ヒトgp130受容体 (soluble human gp130 receptor, extracellular region with six histidines, made in CHO DG44 cells) (human, UniProt P40189 23-619).
T1 construct: The stated range 1-619 begins at Met 1 and so holds the native signal peptide; also called 可溶性ヒトgp130受容体タンパク質; ヒトgp130受容体
T1 sequence: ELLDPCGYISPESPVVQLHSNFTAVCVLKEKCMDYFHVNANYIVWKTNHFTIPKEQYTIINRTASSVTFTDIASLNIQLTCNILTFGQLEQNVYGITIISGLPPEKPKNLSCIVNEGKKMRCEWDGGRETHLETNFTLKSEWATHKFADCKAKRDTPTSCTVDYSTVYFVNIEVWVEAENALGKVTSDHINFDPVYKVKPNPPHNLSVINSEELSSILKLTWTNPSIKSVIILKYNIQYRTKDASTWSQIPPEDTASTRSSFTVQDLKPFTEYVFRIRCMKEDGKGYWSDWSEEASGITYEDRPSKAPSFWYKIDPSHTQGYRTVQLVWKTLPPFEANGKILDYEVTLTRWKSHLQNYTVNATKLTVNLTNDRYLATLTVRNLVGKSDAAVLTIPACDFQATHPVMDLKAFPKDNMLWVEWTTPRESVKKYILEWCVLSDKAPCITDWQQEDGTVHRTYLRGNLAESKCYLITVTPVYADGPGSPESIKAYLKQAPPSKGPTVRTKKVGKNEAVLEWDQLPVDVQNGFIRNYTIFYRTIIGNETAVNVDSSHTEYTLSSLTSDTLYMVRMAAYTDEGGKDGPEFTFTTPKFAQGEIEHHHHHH
In words: SPR (Biacore T200), gp130 amine-coupled on CM5 (235.2 RU), Fab as analyte.

Experiment [2] deals with T1, 可溶性ヒトgp130受容体 (soluble human gp130 …). Put plainly: SPR (Biacore T200), gp130 amine-coupled on CM5 (376 RU), full-length IgG as analyte. Background: SPR reads the build-up and loss of mass on a sensor chip optically.
The target is the same in experiment [3]. Put plainly: ELISA, soluble gp130 coated on the plate, hybridoma supernatant, anti-mouse HRP. A general note: An ELISA detects its analyte on a solid surface through an enzyme-linked reagent.
Experiment [4] shares this target. In words: SPR (Biacore T200), gp130 amine-coupled on CM5 (352 RU), Fab as analyte, 25 C.

B1: hAH1hAL1 (humanized Fab, VH SEQ ID NO 25, VL SEQ ID NO 76, from pUC-Fab-hAH1hAL1) (Fab, V domains shown)
VH: QVQLQQPGAELVQPGTSVRLSCKASGYTFTDYNMDWVKQRPGQGLEWIGDINSHSGGIIYNQKFKDKATLTVDKSSSTAYMQLSSLTSEDSAVYYCARTYYVYGHFFDYWGQGTLVTVSA
VL: DIQMTQSPSSLSASVGDRVTITCNVSSSVTSMYWYQQKQGKSPQLLVYLTSNLASGVPARFSGSGSGTEFTLTISSLQPDDFATYYCQQWSTNPLTFGAGTKLDLKR
Turning to B1, in experiment [1], binding was put at a Kd of 0.218 nM, the koff is 5.6e-05 s⁻¹ and the kon came to 257000 M⁻¹ s⁻¹.

B2: hAH1hAL3 (full-length humanized anti-gp130 receptor antibody, H chain hAH1, L chain hAL3, made in CHO DG44 cells) (antibody, human IgG1, kappa, V domains shown)
VH: QVQLQQPGAELVQPGTSVRLSCKASGYTFTDYNMDWVKQRPGQGLEWIGDINSHSGGIIYNQKFKDKATLTVDKSSSTAYMQLSSLTSEDSAVYYCARTYYVYGHFFDYWGQGTLVTVSA
VL: DIQMTQSPSSLSASVGDRVTITCNVSSSVTSMYWFQQRPGQAPKVLIYLTSNLASGVPSRFSGSGSGTEFTLTISSLQPDDFATYYCQQWSTNPLTFGQGTKVEIKR
notes: Human IgG1, kappa constant regions; also called ヒト化抗体hAH1hAL3
For the molecule B2, in experiment [2], binding was characterised by a dissociation constant (Kd) of 0.585 nM, the koff came to 7.25e-05 s⁻¹ and the kon is 124000 M⁻¹ s⁻¹.

B3: hAH1hAL2 (humanized Fab, VH SEQ ID NO 25, VL SEQ ID NO 77, from pUC-Fab-hAH1hAL2) (Fab, V domains shown)
VH: QVQLQQPGAELVQPGTSVRLSCKASGYTFTDYNMDWVKQRPGQGLEWIGDINSHSGGIIYNQKFKDKATLTVDKSSSTAYMQLSSLTSEDSAVYYCARTYYVYGHFFDYWGQGTLVTVSA
VL: ELVLTQSPGTLSLSAGERATLSCNVSSSVTSMYWYQQKPGKAPKLLIYLTSNLASGVPSRFSGSGSGTQFSLKINNLQPEDFGSYYCQQWSTNPLTFGAGTKLDLKR
In experiment [1], B3 gave a Kd of 0.594 nM, a koff of 7.05e-05 s⁻¹ and a kon of 119000 M⁻¹ s⁻¹.

B4: 抗体A (mouse anti-human gp130 receptor monoclonal antibody from hybridoma) (antibody, mouse IgG1, kappa, V domains shown)
VH: EVLLQQSGPELVKPGASVKIPCKASGYTFTDYNMDWVKQSHGKSLEWIGDINSHSGGIIYNQKFKDKAILTVDKSSSTAYMELRSLTSEDTAVYYCARTYYVYGHFFDYWGQGTTLTVSS
VL: QSVLTQSPAFISASPGEKVTMTCNVSSSVTSMYWYQQKPGSSPKPWIYLTSNLASGVPPRFSGSGSGTSYSLTISSLEAEDAATYYCQQWSTNPLTFGAGTKLELKR
notes: also called マウス抗体A; antibody A
With B4, the binding result in experiment [3] is reported as “binds”.

B5: 小型化マウス抗体A (Fab of mouse antibody A, from pUC-Fab-mAHmAL, E. coli) (Fab, V domains shown)
VH: EVLLQQSGPELVKPGASVKIPCKASGYTFTDYNMDWVKQSHGKSLEWIGDINSHSGGIIYNQKFKDKAILTVDKSSSTAYMELRSLTSEDTAVYYCARTYYVYGHFFDYWGQGTTLTVSS
VL: QSVLTQSPAFISASPGEKVTMTCNVSSSVTSMYWYQQKPGSSPKPWIYLTSNLASGVPPRFSGSGSGTSYSLTISSLEAEDAATYYCQQWSTNPLTFGAGTKLELKR
As to B5, in experiment [4], binding was characterised by a dissociation constant (Kd) of 0.598 nM, the koff came out at 8.42e-05 s⁻¹ and the kon came out at 141000 M⁻¹ s⁻¹.

B6: hAH1mAL (Fab: humanized VH hAH1 with the mouse L chain of antibody A, from pUC-Fab-hAH1mAL) (Fab, V domains shown)
VH: QVQLQQPGAELVQPGTSVRLSCKASGYTFTDYNMDWVKQRPGQGLEWIGDINSHSGGIIYNQKFKDKATLTVDKSSSTAYMQLSSLTSEDSAVYYCARTYYVYGHFFDYWGQGTLVTVSA
VL: QSVLTQSPAFISASPGEKVTMTCNVSSSVTSMYWYQQKPGSSPKPWIYLTSNLASGVPPRFSGSGSGTSYSLTISSLEAEDAATYYCQQWSTNPLTFGAGTKLELKR
In experiment [4], B6 came in with a Kd of 0.46 nM, a koff of 8.21e-05 s⁻¹ and a kon of 178000 M⁻¹ s⁻¹.
